Paper PMC9136605

Biological target: human lactate dehydrogenase C (LDHC), recombinant wild type with C-terminal His6-tag (human) (UniProt P07864)

Sequence of human lactate dehydrogenase C (LDHC), recombinant wild type with C-terminal His6-tag (P07864 whole entry): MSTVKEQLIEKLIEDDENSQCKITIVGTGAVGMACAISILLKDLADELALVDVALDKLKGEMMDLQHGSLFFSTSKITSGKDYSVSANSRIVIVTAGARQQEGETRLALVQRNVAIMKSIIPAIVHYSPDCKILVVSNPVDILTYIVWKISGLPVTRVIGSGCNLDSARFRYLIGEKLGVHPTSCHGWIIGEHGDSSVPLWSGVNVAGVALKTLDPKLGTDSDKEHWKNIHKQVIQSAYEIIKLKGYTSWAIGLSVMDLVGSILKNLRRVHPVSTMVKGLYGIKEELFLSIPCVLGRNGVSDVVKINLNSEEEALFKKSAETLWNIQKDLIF

human lactate dehydrogenase C (LDHC), recombinant wild type with C-terminal His6-tag (from UniProt P07864 1-332) (enzyme)
stoichiometry N: 4
